Drawing on PMC6959147 (BioMed Research International, 2019), this text covers Kd, koff and kon for eleven molecules.

Sequences and labels used below:
B1: mAb 3_7 (IgG4 converted from scFv 3_7) (antibody, V domains shown)
VH: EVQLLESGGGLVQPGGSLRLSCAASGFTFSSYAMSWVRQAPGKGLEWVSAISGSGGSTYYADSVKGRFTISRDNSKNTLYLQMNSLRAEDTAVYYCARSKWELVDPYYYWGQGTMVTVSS
VL: NFMLTQPHSVSESPGKTITISCTRSSGSIAGNYVQWYQQRPGSAPIIVIYEDNQRPSGVPDRFSGSIDSSSNSASLTISRLKTEDEADYYCQSYEASNVVFGGGTKLTVL
notes: as the VH stretch before the HCDR3 of m14; HCDR3 of 3_7; T to S at position 1 and D to Y at position 10 against the wild type; as the VH stretch after the HCDR3 of m14; as the light chain of m14; IgG4; also called IgG 3_7; source: EBNA 293 cells, cotransfected (pEU8.2 and pEU4.2), purified from the medium (protein A); copies: 2 + 2
B2: mAb 3_17 (IgG4 converted from scFv 3_17) (antibody, V domains shown)
VH: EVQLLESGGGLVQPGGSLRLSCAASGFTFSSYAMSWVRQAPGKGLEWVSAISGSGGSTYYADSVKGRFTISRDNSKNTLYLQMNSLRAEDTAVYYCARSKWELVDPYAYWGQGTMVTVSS
VL: B1 VL
notes: as the VH stretch before the HCDR3 of m14; HCDR3 of 3_17; T to S at position 1 and D to A at position 10 against the wild type; as the VH stretch after the HCDR3 of m14; as the light chain of m14; IgG4; also called IgG 3_17; source: EBNA 293 cells, cotransfected (pEU8.2 and pEU4.2), purified from the medium (protein A); copies: 2 + 2
B3: mAb 3_14 (IgG4 converted from scFv 3_14) (antibody, V domains shown)
VH: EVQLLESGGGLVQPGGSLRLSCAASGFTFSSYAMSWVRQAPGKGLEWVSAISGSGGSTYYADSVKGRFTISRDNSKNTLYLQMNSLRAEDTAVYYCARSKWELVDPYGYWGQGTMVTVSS
VL: B1 VL
notes: as the VH stretch before the HCDR3 of m14; HCDR3 of 3_14; T to S at position 1 and D to G at position 10 against the wild type; as the VH stretch after the HCDR3 of m14; as the light chain of m14; IgG4; also called IgG 3_14; source: EBNA 293 cells, cotransfected (pEU8.2 and pEU4.2), purified from the medium (protein A); copies: 2 + 2
B4: mAb 10_3 (IgG4 converted from scFv 10_3) (antibody, V domains shown)
VH: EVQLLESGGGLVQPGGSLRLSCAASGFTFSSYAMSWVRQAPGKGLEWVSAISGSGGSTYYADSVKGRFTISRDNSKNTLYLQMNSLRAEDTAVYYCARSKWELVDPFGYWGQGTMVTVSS
VL: B1 VL
notes: as the VH stretch before the HCDR3 of m14; HCDR3 of 10_3; T to S at position 1, Y to F at position 9 and D to G at position 10 against the wild type; as the VH stretch after the HCDR3 of m14; as the light chain of m14; IgG4; also called IgG 10_3; antibody 10_3; source: EBNA 293 cells, cotransfected (pEU8.2 and pEU4.2), purified from the medium (protein A); copies: 2 + 2
B5: mAb 3_3 (IgG4 converted from scFv 3_3) (antibody, V domains shown)
VH: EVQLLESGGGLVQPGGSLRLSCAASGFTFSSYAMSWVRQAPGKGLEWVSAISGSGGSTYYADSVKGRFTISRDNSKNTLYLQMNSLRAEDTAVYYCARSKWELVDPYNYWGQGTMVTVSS
VL: B1 VL
notes: as the VH stretch before the HCDR3 of m14; HCDR3 of 3_3; T to S at position 1 and D to N at position 10 against the wild type; as the VH stretch after the HCDR3 of m14; as the light chain of m14; IgG4; also called IgG 3_3; source: EBNA 293 cells, cotransfected (pEU8.2 and pEU4.2), purified from the medium (protein A); copies: 2 + 2
B6: scFv-yeast clone 3_3 (scFv, V domains shown)
VH: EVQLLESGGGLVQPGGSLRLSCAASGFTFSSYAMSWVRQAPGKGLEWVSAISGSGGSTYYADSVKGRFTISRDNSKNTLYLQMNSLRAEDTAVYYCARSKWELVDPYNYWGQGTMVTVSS
VL: B1 VL
notes: as the stretch N-terminal of the HCDR3 of m4; HCDR3 of clone 3_3 (same as 10_4); as the stretch C-terminal of the HCDR3 of m4; also called 10_4; not shown: HA, C-terminal, kept
B7: scFv-yeast clone 10_3 (scFv, V domains shown)
VH: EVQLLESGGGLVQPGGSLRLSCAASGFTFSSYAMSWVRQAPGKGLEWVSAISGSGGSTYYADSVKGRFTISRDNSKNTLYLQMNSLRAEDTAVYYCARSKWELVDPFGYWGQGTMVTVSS
VL: B1 VL
notes: as the stretch N-terminal of the HCDR3 of m4; HCDR3 of clone 10_3; as the stretch C-terminal of the HCDR3 of m4; not shown: HA, C-terminal, kept
B8: scFv-yeast clone 3_17 (scFv, V domains shown)
VH: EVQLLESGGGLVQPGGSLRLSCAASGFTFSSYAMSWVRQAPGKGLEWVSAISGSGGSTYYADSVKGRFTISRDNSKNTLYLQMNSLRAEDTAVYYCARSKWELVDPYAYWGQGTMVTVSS
VL: B1 VL
notes: as the stretch N-terminal of the HCDR3 of m4; HCDR3 of clone 3_17; as the stretch C-terminal of the HCDR3 of m4; not shown: HA, C-terminal, kept
B9: scFv-yeast clone 3_7 (scFv, V domains shown)
VH: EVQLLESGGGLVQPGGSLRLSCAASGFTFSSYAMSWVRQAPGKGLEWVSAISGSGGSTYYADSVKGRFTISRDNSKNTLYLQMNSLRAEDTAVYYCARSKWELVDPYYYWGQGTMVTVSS
VL: B1 VL
notes: as the stretch N-terminal of the HCDR3 of m4; HCDR3 of clone 3_7; as the stretch C-terminal of the HCDR3 of m4; not shown: HA, C-terminal, kept
B10: scFv-yeast clone 10_12 (scFv, V domains shown)
VH: not shown
VL: B1 VL
notes: as the stretch N-terminal of the HCDR3 of m4; HCDR3 of clone 10_12; as the stretch C-terminal of the HCDR3 of m4; not shown: HA, C-terminal, kept
B11: scFv-yeast clone 3_14 (scFv, V domains shown)
VH: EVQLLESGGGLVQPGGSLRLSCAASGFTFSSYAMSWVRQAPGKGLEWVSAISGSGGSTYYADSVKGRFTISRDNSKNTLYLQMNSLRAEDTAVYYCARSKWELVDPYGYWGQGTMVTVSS
VL: B1 VL
notes: as the stretch N-terminal of the HCDR3 of m4; HCDR3 of clone 3_14 (same as 10_2); as the stretch C-terminal of the HCDR3 of m4; also called 10_2; not shown: HA, C-terminal, kept

For one assay, the target named is T1, recombinant human PD-L1, Fc-tagged (rhPD-L1-Fc) (Homo sapiens, UniProt Q9NZQ7).
T1 construct: human PD-L1 (programmed death ligand-1) extracellular domain, linked to the Fc region of human IgG1; soluble disulfide-linked homodimer; also called dimeric rhPD-L1-Fc; dimeric PD-L1; source: bought: R&D Systems
T1 sequence (Q9NZQ7 19-238): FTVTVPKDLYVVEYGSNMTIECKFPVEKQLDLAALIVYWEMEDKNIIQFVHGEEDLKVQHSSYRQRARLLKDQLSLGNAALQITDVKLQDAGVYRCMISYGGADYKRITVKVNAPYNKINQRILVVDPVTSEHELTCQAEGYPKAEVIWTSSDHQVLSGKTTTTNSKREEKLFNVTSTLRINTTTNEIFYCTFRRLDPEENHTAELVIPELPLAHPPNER
The experiment in a line: SPR; Biacore X100, 25°C, HBS-EP pH 7.4; dimeric rhPD-L1-Fc (300 RU) immobilised by amine coupling on CM5, IgG as analyte (12.5-0.39 nM wild type, 6.25-0.39 nM mutated mAbs); 1:1 Langmuir; apparent constants (KD2) of bivalent binding. As to conditions: both partners purified. Background: Surface plasmon resonance follows binding to a sensor surface in real time, without labels.
Usually koff stands for a measure of how fast the partners let go of each other. The term kon denotes the rate constant with which the complex forms. In the case of B1, the Kd stood at 0.287 nM, the koff turned out to be 0.000287 s⁻¹ and the kon came out at 1.03e+06 M⁻¹ s⁻¹.

B2: the Kd came out at 0.165 nM, the koff stood at 0.000159 s⁻¹ and the kon is 1.01e+06 M⁻¹ s⁻¹. On to B3, for which the Kd amounted to 0.172 nM, the koff was 0.000176 s⁻¹ and the kon stood at 1.05e+06 M⁻¹ s⁻¹.

Turning to B4, the Kd turned out to be 0.139 nM, the koff worked out at 0.000148 s⁻¹ and the kon was 1.1e+06 M⁻¹ s⁻¹. Regarding B5, the Kd came out at 0.174 nM, the koff amounted to 0.000193 s⁻¹ and the kon was found to be 1.14e+06 M⁻¹ s⁻¹.

For the next assay, the target named is T1, recombinant human PD-L1, Fc-tagged …. Description: flow cytometry on cells; scFv displayed on yeast, titration with rhPD-L1-Fc (10 pM to 10 nM plus 30 nM), PBS 0.5% BSA, room temperature; binding MFI normalised on scFv expression; apparent KD = half-saturating antigen concentration. As to conditions: one partner purified. A general note: A flow cytometer gives signals particle by particle.
For B6, the Kd was below 1 nM. Regarding B7, the Kd is below 1 nM. Consider B8, for which the Kd is below 1 nM. Take B9: the Kd was below 1 nM.

B10: the Kd is below 1 nM. Turning to B11, the Kd is below 1 nM.
